Laboratory results reported in PMC13218722.

Key:
[1] = target: LFA-1 (CD11a/CD18) on THP-1 cells and primary human NK cells (human (endogenous in THP-1 and primary NK cells)) (UniProt P20701); assay: flow cytometry on cells; THP-1 cells, with or without CD11a siRNA, fixed, incubated with 250 nM GBP130-Fc or 250 nM hIgG control in FACS buffer 2 hr; PE-Texas Red anti-human secondary antibody
[2] = target: LFA-1 (CD11a/CD18) on THP-1 cells and primary human NK cells (human (endogenous in THP-1 and primary NK cells)) (UniProt P20701)
[3] = target: LFA-1 αI-Fc fusion protein (human) (UniProt P20701); assay: BLI; LFA-1 αI immobilised on AR2G (amine reactive) sensor at 100 ng; PfGBP-130-N as analyte at increasing concentrations; 1× PBS pH 7.4; 25°C; 800 s; 1:1 binding model; Octet K2; n≥3
Sequence of LFA-1 αI-Fc fusion protein (human) (P20701 153-335): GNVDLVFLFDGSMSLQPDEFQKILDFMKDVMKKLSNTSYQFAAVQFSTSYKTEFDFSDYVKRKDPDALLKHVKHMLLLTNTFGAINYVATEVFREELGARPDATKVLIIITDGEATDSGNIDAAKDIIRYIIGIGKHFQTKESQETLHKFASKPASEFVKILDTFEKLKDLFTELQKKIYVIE

Sequence of LFA-1 (CD11a/CD18) on THP-1 cells and primary human NK cells (human (endogenous in THP-1 and primary NK cells)) (P20701 26-1170, chain 1 of 2): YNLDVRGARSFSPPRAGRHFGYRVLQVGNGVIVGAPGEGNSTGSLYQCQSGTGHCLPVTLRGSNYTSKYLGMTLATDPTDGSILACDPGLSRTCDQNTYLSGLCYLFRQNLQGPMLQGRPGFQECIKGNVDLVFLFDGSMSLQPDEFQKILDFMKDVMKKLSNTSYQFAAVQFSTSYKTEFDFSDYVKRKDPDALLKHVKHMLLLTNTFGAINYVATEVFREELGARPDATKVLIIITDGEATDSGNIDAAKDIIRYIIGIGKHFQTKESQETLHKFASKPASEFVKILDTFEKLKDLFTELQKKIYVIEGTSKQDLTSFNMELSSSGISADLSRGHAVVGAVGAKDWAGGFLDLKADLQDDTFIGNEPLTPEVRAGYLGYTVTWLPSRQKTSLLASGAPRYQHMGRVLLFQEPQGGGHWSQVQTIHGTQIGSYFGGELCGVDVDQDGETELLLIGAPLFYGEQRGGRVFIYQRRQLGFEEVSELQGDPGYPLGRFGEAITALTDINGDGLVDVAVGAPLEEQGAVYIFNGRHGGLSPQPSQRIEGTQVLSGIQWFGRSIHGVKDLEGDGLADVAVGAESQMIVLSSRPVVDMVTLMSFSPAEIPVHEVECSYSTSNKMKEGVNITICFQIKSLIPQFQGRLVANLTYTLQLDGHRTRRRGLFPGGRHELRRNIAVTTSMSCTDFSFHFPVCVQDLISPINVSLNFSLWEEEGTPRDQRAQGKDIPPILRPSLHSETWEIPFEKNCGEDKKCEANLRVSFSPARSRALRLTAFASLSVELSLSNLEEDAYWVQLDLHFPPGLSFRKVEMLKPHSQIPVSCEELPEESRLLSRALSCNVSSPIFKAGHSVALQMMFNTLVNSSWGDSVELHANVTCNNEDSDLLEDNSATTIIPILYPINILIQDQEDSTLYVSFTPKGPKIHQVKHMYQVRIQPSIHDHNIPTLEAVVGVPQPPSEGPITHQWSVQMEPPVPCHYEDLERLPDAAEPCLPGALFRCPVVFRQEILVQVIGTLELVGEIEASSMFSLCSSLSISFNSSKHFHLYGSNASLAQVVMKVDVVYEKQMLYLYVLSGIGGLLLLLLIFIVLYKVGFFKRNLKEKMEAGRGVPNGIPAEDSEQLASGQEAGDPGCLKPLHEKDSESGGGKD
Sequence of LFA-1 (CD11a/CD18) on THP-1 cells and primary human NK cells (human (endogenous in THP-1 and primary NK cells)) (P05107 23-769, chain 2 of 2, further chain): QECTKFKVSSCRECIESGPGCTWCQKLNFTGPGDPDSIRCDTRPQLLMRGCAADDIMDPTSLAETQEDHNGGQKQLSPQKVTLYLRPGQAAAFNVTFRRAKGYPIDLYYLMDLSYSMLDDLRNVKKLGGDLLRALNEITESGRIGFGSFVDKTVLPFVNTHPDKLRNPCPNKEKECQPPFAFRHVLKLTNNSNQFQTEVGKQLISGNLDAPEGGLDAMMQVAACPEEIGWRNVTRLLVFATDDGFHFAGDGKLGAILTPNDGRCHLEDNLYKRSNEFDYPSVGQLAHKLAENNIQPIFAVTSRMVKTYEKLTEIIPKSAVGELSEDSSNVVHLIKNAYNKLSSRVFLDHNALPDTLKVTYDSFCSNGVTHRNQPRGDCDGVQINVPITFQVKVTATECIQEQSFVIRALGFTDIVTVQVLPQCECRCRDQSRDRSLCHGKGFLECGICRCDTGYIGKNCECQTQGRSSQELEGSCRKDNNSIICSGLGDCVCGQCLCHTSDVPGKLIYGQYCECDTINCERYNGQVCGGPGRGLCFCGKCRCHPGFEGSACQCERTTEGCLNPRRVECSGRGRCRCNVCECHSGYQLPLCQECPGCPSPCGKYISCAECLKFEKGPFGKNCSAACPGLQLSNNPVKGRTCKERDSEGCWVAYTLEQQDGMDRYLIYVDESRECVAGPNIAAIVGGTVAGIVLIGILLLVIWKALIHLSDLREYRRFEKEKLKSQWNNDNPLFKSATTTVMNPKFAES
Sequence of PfGBP-130-N (N-terminal fragment of PfGBP-130, aa 69-270) (domain or fragment) (Q8I6U8 69-270): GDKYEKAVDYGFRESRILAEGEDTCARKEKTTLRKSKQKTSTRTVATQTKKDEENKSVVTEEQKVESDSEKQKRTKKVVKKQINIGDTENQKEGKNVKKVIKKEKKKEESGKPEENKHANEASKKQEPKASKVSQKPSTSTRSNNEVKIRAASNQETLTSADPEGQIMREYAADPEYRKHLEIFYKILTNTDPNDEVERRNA

PfGBP-130 ECD-Fc (extracellular domain of PfGBP-130 fused to the Fc region of human IgG1) (Fc fusion)
fold increase in binding over hIgG isotype control (THP-1 cells) [1]: 3 fold

PfGBP-130 extracellular domain fused to the transmembrane domain of transferrin receptor (TfR-TM), on CHO K1 cells
CD25 expression on primary human NK cells co-cultured 24 hr with CHO-PfGBP-ECD (2:1, Poly I:C/Lipofectamine 2000) compared to mock CHO cells, flow cytometry; reduced by anti-CD11a (HI111) [2]: 40%
CD69 expression on primary human NK cells co-cultured 24 hr with CHO-PfGBP-ECD (2:1, Poly I:C/Lipofectamine 2000) compared to mock CHO cells, flow cytometry; reduced by anti-CD11a (HI111) [2]: 50%

PfGBP-130-N (N-terminal fragment of PfGBP-130, aa 69-270) (domain or fragment)
Kd [3]: 17 nM
